Source: patent US20160137744A1 (ONCOMED PHARMACEUTICALS, published 2016)
Where two headings read alike, the source gives them in different places. Blank lines part the entries; values can stand above or below the molecule they belong to.

Key:
[1] = target: full-length human MET (FL-MET) on cells (human) (UniProt P08581); assay: FACS blocking assay: MET-transfected HEK-293T cells pre-incubated with the agent, then biotin-HGF (blocked ligand) + PE-streptavidin; inhibition versus the average of the two positive controls
[2] = target: full-length human MET (FL-MET) on cells (human) (UniProt P08581); assay: FACS competition, biotin-HGF on MET-transfected HEK-293T cells; antibody at 0.16 µg/ml
[3] = target: full-length human MET (FL-MET) on cells (human) (UniProt P08581); assay: FACS competition, biotin-HGF on MET-transfected HEK-293T cells; antibody at 10 µg/ml
[4] = target: full-length human MET (FL-MET) on cells (human) (UniProt P08581); assay: FACS blocking assay: MET-transfected HEK-293T cells pre-incubated with the agent, then biotin-HGF (blocked ligand) + PE-streptavidin; % cells in gate P2
[5] = target: T1, human MET (soluble analyte in Biacore) (human, UniProt P08581 25-932); assay: SPR (Biacore 2000), antibody captured by anti-human antibody, human MET injected
Protocol: (§1) The KD of monovalent version of 73R009, monovalent anti-MET antibody 5D5, and anti-MET/FZD8-Fc bispecific agent 315B6 were determined using a Biacore 2000 system from Biacore LifeSciences (GE Healthcare). A goat anti-human antibody (Invitrogen H10500) was coupled to a carboxymethyl-dextran (CM5) SPR chip using standard amine-based chemistry (NHS/EDC) and blocked with ethanolamine. Antibodies were diluted to a concentration of 10 μg/ml in HBS-P-BSA (0.01M HEPES pH7.4, 0.15M NaCl, 0.005% v/v Polysorbate 20, 10 μg/ml BSA) and captured onto the chip via the anti-human antibody. Human MET was serially diluted 2-fold from 300 nM to 37.5 nM in HBS-P-BSA and injected sequentially over the captured anti-MET antibodies. MET association and dissociation was measured at each concentration. After each antigen injection 5 μl of 100 mM H₃PO₄ was injected to remove the antigen-antibody complex and a subsequent injection performed. Kinetic data were collected over time and were fit using the simultaneous global fit equation to yield affinity constants (KD values) for each agent.
(§2) In addition, the bispecific agent 315B6 appeared to have stronger affinity for human MET than anti-MET antibody 5D5.

[6] = target: full-length human MET (FL-MET) on cells (human) (UniProt P08581); assay: FACS blocking assay: MET-transfected HEK-293T cells pre-incubated with the agent, then biotin-HGF (blocked ligand) + PE-streptavidin; inhibition versus the average of the two positive controls; remark: listed apart in the source
[7] = target: full-length human MET (FL-MET) on cells (human) (UniProt P08581); assay: FACS blocking assay: MET-transfected HEK-293T cells pre-incubated with the agent, then biotin-HGF (blocked ligand) + PE-streptavidin; % cells in gate P2; remark: listed apart in the source
[8] = target: T1, human MET (soluble analyte in Biacore); assay: SPR (Biacore 2000), agent captured by anti-human antibody, human MET injected
Protocol: as §1, §2

T1 sequence (P08581 25-932 limits assumed): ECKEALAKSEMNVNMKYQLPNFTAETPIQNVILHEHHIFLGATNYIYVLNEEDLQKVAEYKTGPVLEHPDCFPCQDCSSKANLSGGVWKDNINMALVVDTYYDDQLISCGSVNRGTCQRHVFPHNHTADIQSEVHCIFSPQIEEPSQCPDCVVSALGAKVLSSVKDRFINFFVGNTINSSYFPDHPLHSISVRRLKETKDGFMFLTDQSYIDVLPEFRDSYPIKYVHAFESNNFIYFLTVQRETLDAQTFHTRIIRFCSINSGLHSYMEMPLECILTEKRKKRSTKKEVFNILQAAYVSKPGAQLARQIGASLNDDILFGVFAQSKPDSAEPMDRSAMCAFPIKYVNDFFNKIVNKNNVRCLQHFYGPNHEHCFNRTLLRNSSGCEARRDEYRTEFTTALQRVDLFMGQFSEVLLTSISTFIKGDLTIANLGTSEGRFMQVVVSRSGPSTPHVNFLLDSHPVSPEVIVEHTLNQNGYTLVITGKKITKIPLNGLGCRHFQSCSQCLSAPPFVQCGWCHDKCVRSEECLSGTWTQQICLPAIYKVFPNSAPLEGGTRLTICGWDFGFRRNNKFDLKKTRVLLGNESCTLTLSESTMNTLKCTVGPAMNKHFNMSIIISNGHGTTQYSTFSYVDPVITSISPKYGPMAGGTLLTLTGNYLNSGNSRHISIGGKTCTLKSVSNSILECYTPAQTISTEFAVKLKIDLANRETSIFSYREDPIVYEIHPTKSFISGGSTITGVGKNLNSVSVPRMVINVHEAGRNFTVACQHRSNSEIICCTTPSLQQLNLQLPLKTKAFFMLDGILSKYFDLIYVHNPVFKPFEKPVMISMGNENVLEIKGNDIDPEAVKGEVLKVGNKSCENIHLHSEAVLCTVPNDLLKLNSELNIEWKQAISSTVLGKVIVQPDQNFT
Sequence of full-length human MET (FL-MET) on cells (human) (P08581 25-1390 limits assumed): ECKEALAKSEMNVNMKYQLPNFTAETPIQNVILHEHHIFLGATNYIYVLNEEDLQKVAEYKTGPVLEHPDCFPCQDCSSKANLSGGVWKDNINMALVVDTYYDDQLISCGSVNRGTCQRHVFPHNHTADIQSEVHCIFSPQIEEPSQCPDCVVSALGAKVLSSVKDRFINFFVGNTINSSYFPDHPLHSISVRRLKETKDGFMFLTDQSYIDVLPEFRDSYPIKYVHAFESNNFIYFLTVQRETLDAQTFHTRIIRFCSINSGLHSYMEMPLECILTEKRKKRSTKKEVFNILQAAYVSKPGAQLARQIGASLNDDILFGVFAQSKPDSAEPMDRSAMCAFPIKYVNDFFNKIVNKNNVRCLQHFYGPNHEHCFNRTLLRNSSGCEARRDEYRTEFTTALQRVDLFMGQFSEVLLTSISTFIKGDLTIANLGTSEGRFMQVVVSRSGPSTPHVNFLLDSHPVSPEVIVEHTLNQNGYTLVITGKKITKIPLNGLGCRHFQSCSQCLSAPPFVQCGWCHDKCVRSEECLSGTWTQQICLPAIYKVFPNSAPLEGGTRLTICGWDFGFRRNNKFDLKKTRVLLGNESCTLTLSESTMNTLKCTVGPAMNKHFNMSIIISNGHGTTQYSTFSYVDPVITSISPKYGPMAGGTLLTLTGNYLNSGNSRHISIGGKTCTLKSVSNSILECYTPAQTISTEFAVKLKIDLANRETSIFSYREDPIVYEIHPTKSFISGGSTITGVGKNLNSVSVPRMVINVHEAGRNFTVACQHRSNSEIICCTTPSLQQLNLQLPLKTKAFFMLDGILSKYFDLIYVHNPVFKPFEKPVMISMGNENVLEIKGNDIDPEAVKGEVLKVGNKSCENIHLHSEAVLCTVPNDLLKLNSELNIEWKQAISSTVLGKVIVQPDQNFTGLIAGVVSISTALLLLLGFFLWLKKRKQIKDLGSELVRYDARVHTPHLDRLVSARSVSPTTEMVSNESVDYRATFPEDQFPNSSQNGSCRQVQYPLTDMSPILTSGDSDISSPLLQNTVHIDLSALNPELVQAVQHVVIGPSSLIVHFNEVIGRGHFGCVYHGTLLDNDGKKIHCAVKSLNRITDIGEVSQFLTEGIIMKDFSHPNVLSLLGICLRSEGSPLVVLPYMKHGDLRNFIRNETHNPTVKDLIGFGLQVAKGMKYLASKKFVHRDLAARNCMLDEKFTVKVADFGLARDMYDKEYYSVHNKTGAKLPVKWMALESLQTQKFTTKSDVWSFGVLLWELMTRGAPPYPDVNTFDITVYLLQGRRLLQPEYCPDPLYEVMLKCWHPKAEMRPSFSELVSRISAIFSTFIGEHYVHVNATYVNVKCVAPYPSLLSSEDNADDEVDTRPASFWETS

B2: antibody 73R009 (bivalent "parental" antibody) (antibody, human IgG2, kappa, V domains shown)
VH: QVQLQESGPGLVKPSETLSLTCTVTGTTITASYAWSWIRQPPGKGLEWMGYISYSGGTDYNPSLKSRITISRDTFKNQFSLKLSSVTAADTATYYCARKGAYWGQGTLVTVSS
VL: DIVLTQSPATLSASPGEKVTLTCSASSSVSSSYLYWYQQKPGQAPKLLIYSTSNLASGVPARFSGSGSGTSYSLTISSLEPEDFATYYCHQWSSYPYTFGGGTKLEIKR
notes: Humanized, bivalent; also called humanized anti-MET monoclonal antibody
Kd [5]: 1.1 nM

B3: anti-MET/FZD8-Fc bispecific agent 315B6 (bispecific antibody, human IgG2, kappa)
heavy: QVQLQESGPGLVKPSETLSLTCTVTGTTITASYAWSWIRQPPGKGLEWMGYISYSGGTDYNPSLKSRITISRDTFKNQFSLKLSSVTAADTATYYCARKGAYWGQGTLVTVSSASTKGPSVFPLAPCSRSTSESTAALGCLVKDYFPEPVTVSWNSGALTSGVHTFPAVLQSSGLYSLSSVVTVPSSNFGTQTYTCNVDHKPSNTKVDKTVERKCCVECPPCPAPPVAGPSVFLFPPKPKDTLMISRTPEVTCVVVDVSHEDPEVQFNWYVDGVEVHNAKTKPREEQFNSTFRVVSVLTVVHQDWLNGKEYKCKVSNKGLPAPIEKTISKTKGQPREPQVYTLPPSREKMTKNQVSLTCLVKGFYPSDIAVEWESNGQPENNYKTTPPMLKSDGSFFLYSKLTVDKSRWQQGNVFSCSVMHEALHNHYTQKSLSLSPGK
light: DIVLTQSPATLSASPGEKVTLTCSASSSVSSSYLYWYQQKPGQAPKLLIYSTSNLASGVPARFSGSGSGTSYSLTISSLEPEDFATYYCHQWSSYPYTFGGGTKLEIKRTVAAPSVFIFPPSDEQLKSGTASVVCLLNNFYPREAKVQWKVDNALQSGNSQESVTEQDSKDSTYSLSSTLTLSKADYEKHKVYACEVTHQGLSSPVTKSFNRGEC
chain: ASAKELACQEITVPLCKGIGYNYTYMPNQFNHDTQDEAGLEVHQFWPLVEIQCSPDLKFFLCSMYTPICLEDYKKPLPPCRSVCERAKAGCAPLMRQYGFAWPDRMRCDRLPEQGNPDTLCMDYNRTDLTTTKVDKTVERKSCVECPPCPAPPVAGPSVFLFPPKPKDTLMISRTPEVTCVVVDVSHEDPEVQFNWYVDGVEVHNAKTKPREEQFNSTFRVVSVLTVVHQDWLNGKEYKCKVSNKGLPAPIEKTISKTKGQPREPQVYTLPPSREEMTKNQVSLTCLVEGFYPSDIAVEWESNGQPENNYKTTPPMLDSDGSFFLYSELTVDKSRWQQGNVFSCSVMHEALHNHYTQKSLSLSPGK
notes: Heterodimer of a monovalent 73R009 arm (heavy + light) and a FZD8 Fri-Fc fusion arm; plasmids ATCC PTA-13609, PTA-13610, PTA-13611; also called bispecific anti-MET/FZD8-Fc agent
Kd [8]: 1.8 nM

Now from value to molecule:

% Inhibition of HGF binding at 0.3 ug/ml agent [1]: 47%
% Inhibition of HGF binding at 0.625 ug/ml agent [1]: 40%
% Inhibition of HGF binding at 1.25 ug/ml agent [1]: 57%
% Inhibition of HGF binding at 2.5 ug/ml agent [1]: 52%
% Inhibition of HGF binding at 5 ug/ml agent [1]: 67%
percent reduction of HGF binding to MET [2]: 28%
percent reduction of HGF binding to MET [3]: 70%
% Binding of HGF at 0.16 ug/ml agent [4]: 14.3%
% Binding of HGF at 0.3 ug/ml agent [4]: 10.6%
% Binding of HGF at 0.625 ug/ml agent [4]: 12%
% Binding of HGF at 1.25 ug/ml agent [4]: 8.54%
% Binding of HGF at 2.5 ug/ml agent [4]: 9.61%
% Binding of HGF at 5 ug/ml agent [4]: 6.67%
% Binding of HGF at 10 ug/ml agent [4]: 6.31%
Kd [5]: 7.2 nM
Molecule: monovalent anti-MET antibody 5D5

percent reduction of HGF binding to MET [2]: 56%
percent reduction of HGF binding to MET [3]: 72%
% Inhibition of HGF binding at 0.3 ug/ml agent [6]: 52%
% Inhibition of HGF binding at 0.625 ug/ml agent [6]: 60%
% Inhibition of HGF binding at 1.25 ug/ml agent [6]: 62%
% Inhibition of HGF binding at 2.5 ug/ml agent [6]: 63%
% Inhibition of HGF binding at 5 ug/ml agent [6]: 61%
Kd [5]: 1.4 nM
% Binding of HGF at 0.16 ug/ml agent [7]: 8.72%
% Binding of HGF at 0.3 ug/ml agent [7]: 9.71%
% Binding of HGF at 0.625 ug/ml agent [7]: 8.03%
% Binding of HGF at 1.25 ug/ml agent [7]: 7.7%
% Binding of HGF at 2.5 ug/ml agent [7]: 7.44%
% Binding of HGF at 5 ug/ml agent [7]: 7.77%
% Binding of HGF at 10 ug/ml agent [7]: 5.51%
B1: monovalent version of anti-MET antibody 73R009 (antibody, part only; not given: monovalent constant regions and partner arm, V domains shown, not shown: another chain or arm of the molecule; a dimerising Fc or GST)
VH: QVQLQESGPGLVKPSETLSLTCTVTGTTITASYAWSWIRQPPGKGLEWMGYISYSGGTDYNPSLKSRITISRDTFKNQFSLKLSSVTAADTATYYCARKGAYWGQGTLVTVSS
VL: DIVLTQSPATLSASPGEKVTLTCSASSSVSSSYLYWYQQKPGQAPKLLIYSTSNLASGVPARFSGSGSGTSYSLTISSLEPEDFATYYCHQWSSYPYTFGGGTKLEIK
